Measurements taken from patent US20240343815A1 (CHIA TAI TIANQING PHARMACEUTICAL GROUP, published 2024).
Like-named read-outs stand apart in the source and are kept apart here.

Assays:
[1] = biological target: T1, recombinant human IL4Rα-his protein (human, UniProt P24394 26-232, biotinylated in the capture ELISA and the benchmark blocking ELISA); experiment: SPR Biacore, mAb captured, IL4Rα-his analyte
T1 construct: also called biotinylated human IL4Rα-his protein
Experimental: Briefly, a goat anti-human IgG (GE Healthcare, Cat. No. BR100839, Human Antibody Capture Kit) was covalently attached to a CMS chip (carboxymethylated dextran-coated chip) via the primary amine group using a standard amine coupling kit supplied by Biacore (GE Healthcare, Pittsburgh, PA, USA). Unreacted portions on the biosensor surface were blocked with ethanolamine. Then, the anti-IL4Rα antibody in the present disclosure at 66.67 nM and an anti-IL4Rα antibody benchmark (dupilumab, or DUPIXENT® or BM) at 10 μg/mL were directed through the chip at a flow rate of 10 μL/min. A recombinant human IL4Rα-his protein (prepared in-house, amino acid sequence set forth in SEQ ID NO: 15), a cynomolgus monkey IL4Rα-his protein (Sino Biological Inc., Cat. No. 90897-008H), or a marmoset monkey IL4Rα-his protein (customized product from Sino Biological Inc., denoted as cal-IL4Rα-his, amino acid sequence set forth in SEQ ID NO: 16) serially diluted with an HBS EP buffer (supplied by Biacore) was directed through the chip at a flow rate of 30 μIJmin. The antigen-antibody binding kinetics was tracked for 2 min and the dissociation kinetics was tracked for 10 min. The association and dissociation curves were fitted according to a 1:1 Langmuir binding model using BIA evaluation software, and the KD, Kₐ, and Kd values were determined.
According to the protocol in the examples above, the binding affinity of the humanized antibodies to human IL4Rα was assessed by the BIAcore technique, and the Kₐ, Kd, and KD values were determined and summarized in Table 3.

[2] = biological target: T2, human IL4Rα on HEK293T-IL4Rα-STAT6-STAT6LUC-LB2 cells (human, UniProt P24394 26-825); experiment: cell-based or functional assay
[3] = biological target: T2, human IL4Rα on …; experiment: cell-based or functional assay; remark: listed apart in the source

| Binder | Dissociation (%) [1] [%] | other results |
| --- | --- | --- |
| huC2C1A1A1-V4 (antibody, human IgG4 S228P, kappa, V domains shown, Humanized IgG4/kappa) VH: EVQLVESGGGLVQPGGSLRLSCAASGFTFSTYGMSWVRQAPGKGLVWVSTINSNGGSTSYPDSVKGRFTISRDNAKNTLYLQMNSLRAEDTAVYYCARFFRFRNAMDYWGQGTLVTVSS VL: DIQMTQSPSSLSASVGDRVTITCRTSENIYSYLAWYQQKPGKAPKFLIYNAKTLAEGVPSRFSGSGSGTDFTLTISSLQPEDFATYYCQHYYGPPTWTFGQGTKVEIKR | 0.2 | – |
| huC2C1A1A1-V3 (antibody, human IgG4 S228P, kappa, V domains shown, Humanized IgG4/kappa) VH: EVQLVESGGGLVQPGGSLRLSCAASGFTFSTYGMSWVRQAPGKGLVWVSTINSNGGSTSYPDSVKGRFTISRDNAKNTLYLQMNSLRAEDTAVYYCARFFRFRNAMDYWGQGTLVTVSS VL: DIQMTQSPSSLSASVGDRVTITCRTSENIYSYLAWYQQKPGKAPKFLVYNAKTLAEGVPSRFSGSGSGTDFTLTISSLQPEDFATYYCQHYYGPPTWTFGQGTKVEIKR | -0.62 | – |
| huC2C1A1A1-V1 (antibody, human IgG4 S228P, kappa, V domains shown, Humanized IgG4/kappa) VH: EVQLVESGGGLVQPGGSLRLSCAASGFTFSTYGMSWVRQAPGKGLVWVSTINSNGGSTSYPDSVKGRFTISRDNAKNTLYLQMNSLRAEDTAVYYCARFFRFRNAMDYWGQGTLVTVSS VL: DIQMTQSPSSLSASVGDRVTITCRTSENIYSYLAWYQQKPGKAPKLLIYNAKTLAEGVPSRFSGSGSGTDFTLTISSLQPEDFATYYCQHYYGPPTWTFGQGTKVEIKR | 0.23 | – |
| huC2C1A1A1-V5 (antibody, human IgG4 S228P, kappa, V domains shown, Humanized IgG4/kappa) VH: EVQLVESGGGLVQPGGSLRLSCAASGFTFSTYGMSWVRQSPDKRLEWVSTINSNGGSTSYPDSVKGRFTISRDNAKNTLYLQMRSLRAEDTAVYYCARFFRFRNAMDYWGQGTLVTVSS VL: DIQMTQSPSSLSASVGDRVTITCRTSENIYSYLAWYQQKPGKAPKLLIYNAKTLAEGVPSRFSGSGSGTDFTLTISSLQPEDFATYYCQHYYGPPTWTFGQGTKVEIKR | -2.28 | – |
| huC2C1A1A1-V2 (antibody, human IgG4 S228P, kappa, V domains shown, Humanized IgG4/kappa) VH: EVQLVESGGGLVQPGGSLRLSCAASGFTFSTYGMSWVRQAPGKGLVWVSTINSNGGSTSYPDSVKGRFTISRDNAKNTLYLQMNSLRAEDTAVYYCARFFRFRNAMDYWGQGTLVTVSS VL: DIQMTQSPSSLSASVGQRVTITCRTSENIYSYLAWYQQKQGKPPRFLIYNAKTLAEGVPSRFSGSGSGTEFTLTITSLQAEDFGVYYCQHYYGPPTWTFGPGTKLEIKR | -0.2 | – |
| huC2C1A1A1-V7 (antibody, human IgG4 S228P, kappa, V domains shown, Humanized IgG4/kappa) VH: EVQLVESGGGLVQPGGSLRLSCAASGFTFSTYGMSWVRQSPDKRLEWVSTINSNGGSTSYPDSVKGRFTISRDNAKNTLYLQMRSLRAEDTAVYYCARFFRFRNAMDYWGQGTLVTVSS VL: DIQMTQSPSSLSASVGDRVTITCRTSENIYSYLAWYQQKPGKAPKFLVYNAKTLAEGVPSRFSGSGSGTDFTLTISSLQPEDFATYYCQHYYGPPTWTFGQGTKVEIKR | -0.66 | – |
| Mouse C2C1A1A1 (antibody, V domains shown) VH: EVQLVESGGGLVQPGGSLKLSCAASGFTFSTYGMSWVRQTPDKRLELVATINSNGGSTSYPDSVKGRFTISRDNAKNTLYLQMSSLKSEDTAMFYCARFFRFRNAMDYWGQGTSVTVSS VL: DIQMTQSPASLSASVGETVTITCRTSENIYSYLAWYQQKQGKSPQFLVYNAKTLAEGVPSRFSGSGSGTQFSLNINSLQSEDFGSYYCQHYYGPPTWTFGGGTKLEIK | – | Inhibition of IL4-induced STAT6 phosphorylation (IC50, nM) [3]: 0.19 nM; Inhibition of IL13-induced STAT6 phosphorylation (IC50, nM) [3]: 0.27 nM |
| huC2C1A1A1-V6 (antibody, human IgG4 S228P, kappa, V domains shown, Humanized IgG4/kappa) VH: EVQLVESGGGLVQPGGSLRLSCAASGFTFSTYGMSWVRQSPDKRLEWVSTINSNGGSTSYPDSVKGRFTISRDNAKNTLYLQMRSLRAEDTAVYYCARFFRFRNAMDYWGQGTLVTVSS VL: DIQMTQSPSSLSASVGQRVTITCRTSENIYSYLAWYQQKQGKPPRFLIYNAKTLAEGVPSRFSGSGSGTEFTLTITSLQAEDFGVYYCQHYYGPPTWTFGPGTKLEIKR | -0.59 | – |

Second part, led by results:

| Dissociation (%) [1] [%] | Binder | other results |
| --- | --- | --- |
| -1.54 | huC2C1A1A1-V10 (antibody, human IgG4 S228P, kappa, V domains shown, Humanized IgG4/kappa) VH: EVQLVESGGGLVQPGGSLRLSCAASGFTFSTYGMSWVRQAPGKGLVLVATINSNGGSTSYPDSVKGRFTISRDNAKNTLYLQMNSLRAEDTAVYYCARFFRFRNAMDYWGQGTLVTVSS VL: DIQMTQSPSSLSASVGQRVTITCRTSENIYSYLAWYQQKQGKPPRFLIYNAKTLAEGVPSRFSGSGSGTEFTLTITSLQAEDFGVYYCQHYYGPPTWTFGPGTKLEIKR | – |
| 0.82 | huC2C1A1A1-V13 (antibody, human IgG4 S228P, kappa, V domains shown, Humanized IgG4/kappa) VH: EVQLVESGGGLVQPGGSLRLSCAASGFTFSTYGMSWVRQAPGKGLVWVATINSNGGSTSYPDSVKGRFTISRDNAKNTLYLQMNSLRAEDTAVYYCARFFRFRNAMDYWGQGTLVTVSS VL: DIQMTQSPSSLSASVGDRVTITCRTSENIYSYLAWYQQKPGKAPKLLIYNAKTLAEGVPSRFSGSGSGTDFTLTISSLQPEDFATYYCQHYYGPPTWTFGQGTKVEIKR | – |
| 0.29 | huC2C1A1A1-V15 (antibody, human IgG4 S228P, kappa, V domains shown, Humanized IgG4/kappa) VH: EVQLVESGGGLVQPGGSLRLSCAASGFTFSTYGMSWVRQAPGKGLVWVATINSNGGSTSYPDSVKGRFTISRDNAKNTLYLQMNSLRAEDTAVYYCARFFRFRNAMDYWGQGTLVTVSS VL: DIQMTQSPSSLSASVGDRVTITCRTSENIYSYLAWYQQKPGKAPKFLVYNAKTLAEGVPSRFSGSGSGTDFTLTISSLQPEDFATYYCQHYYGPPTWTFGQGTKVEIKR | Inhibition of IL4-induced STAT6 phosphorylation (IC50, nM) [2]: 0.61 nM; Inhibition of IL13-induced STAT6 phosphorylation (IC50, nM) [2]: 0.6 nM |
| -1.23 | huC2C1A1A1-V8 (antibody, human IgG4 S228P, kappa, V domains shown, Humanized IgG4/kappa) VH: EVQLVESGGGLVQPGGSLRLSCAASGFTFSTYGMSWVRQSPDKRLEWVSTINSNGGSTSYPDSVKGRFTISRDNAKNTLYLQMRSLRAEDTAVYYCARFFRFRNAMDYWGQGTLVTVSS VL: DIQMTQSPSSLSASVGDRVTITCRTSENIYSYLAWYQQKPGKAPKFLIYNAKTLAEGVPSRFSGSGSGTDFTLTISSLQPEDFATYYCQHYYGPPTWTFGQGTKVEIKR | – |
| -1.88 | huC2C1A1A1-V12 (antibody, human IgG4 S228P, kappa, V domains shown, Humanized IgG4/kappa) VH: EVQLVESGGGLVQPGGSLRLSCAASGFTFSTYGMSWVRQAPGKGLVLVATINSNGGSTSYPDSVKGRFTISRDNAKNTLYLQMNSLRAEDTAVYYCARFFRFRNAMDYWGQGTLVTVSS VL: DIQMTQSPSSLSASVGDRVTITCRTSENIYSYLAWYQQKPGKAPKFLIYNAKTLAEGVPSRFSGSGSGTDFTLTISSLQPEDFATYYCQHYYGPPTWTFGQGTKVEIKR | – |
| -0.92 | huC2C1A1A1-V11 (antibody, human IgG4 S228P, kappa, V domains shown, Humanized IgG4/kappa) VH: EVQLVESGGGLVQPGGSLRLSCAASGFTFSTYGMSWVRQAPGKGLVLVATINSNGGSTSYPDSVKGRFTISRDNAKNTLYLQMNSLRAEDTAVYYCARFFRFRNAMDYWGQGTLVTVSS VL: DIQMTQSPSSLSASVGDRVTITCRTSENIYSYLAWYQQKPGKAPKFLVYNAKTLAEGVPSRFSGSGSGTDFTLTISSLQPEDFATYYCQHYYGPPTWTFGQGTKVEIKR | – |
| -0.24 | huC2C1A1A1-V9 (antibody, human IgG4 S228P, kappa, V domains shown, Humanized IgG4/kappa) VH: EVQLVESGGGLVQPGGSLRLSCAASGFTFSTYGMSWVRQAPGKGLVLVATINSNGGSTSYPDSVKGRFTISRDNAKNTLYLQMNSLRAEDTAVYYCARFFRFRNAMDYWGQGTLVTVSS VL: DIQMTQSPSSLSASVGDRVTITCRTSENIYSYLAWYQQKPGKAPKLLIYNAKTLAEGVPSRFSGSGSGTDFTLTISSLQPEDFATYYCQHYYGPPTWTFGQGTKVEIKR | – |
| -0.42 | huC2C1A1A1-V16 (antibody, human IgG4 S228P, kappa, V domains shown, Humanized IgG4/kappa) VH: EVQLVESGGGLVQPGGSLRLSCAASGFTFSTYGMSWVRQAPGKGLVWVATINSNGGSTSYPDSVKGRFTISRDNAKNTLYLQMNSLRAEDTAVYYCARFFRFRNAMDYWGQGTLVTVSS VL: DIQMTQSPSSLSASVGDRVTITCRTSENIYSYLAWYQQKPGKAPKFLIYNAKTLAEGVPSRFSGSGSGTDFTLTISSLQPEDFATYYCQHYYGPPTWTFGQGTKVEIKR | – |
| 0.8 | huC2C1A1A1-V14 (antibody, human IgG4 S228P, kappa, V domains shown, Humanized IgG4/kappa) VH: EVQLVESGGGLVQPGGSLRLSCAASGFTFSTYGMSWVRQAPGKGLVWVATINSNGGSTSYPDSVKGRFTISRDNAKNTLYLQMNSLRAEDTAVYYCARFFRFRNAMDYWGQGTLVTVSS VL: DIQMTQSPSSLSASVGQRVTITCRTSENIYSYLAWYQQKQGKPPRFLIYNAKTLAEGVPSRFSGSGSGTEFTLTITSLQAEDFGVYYCQHYYGPPTWTFGPGTKLEIKR | Inhibition of IL4-induced STAT6 phosphorylation (IC50, nM) [2]: 0.64 nM; Inhibition of IL13-induced STAT6 phosphorylation (IC50, nM) [2]: 0.73 nM |
